Reference: the supplement of paper PMC12764529
± gives the half width of the 95% confidence interval.

How the values were obtained:
[1] = folding stability dG unfold (combined trypsin and chymotrypsin); higher = more stable
Summary of the method: (§1)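 Only designs with AlphaFold2 dimer inter-PAE above 15 were retained; each was a mini-protein under 80 residues with no cysteine, in a PA-tagged cDNA display construct. After digestion with trypsin and chymotrypsin and sequencing, K50 was inferred by Bayesian fitting of counts, and unfolding free energy was derived per protease or combined against a sequence-predicted unfolded-state K50 and a shared folded-state K50.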

[2] = folding stability dG unfold from trypsin proteolysis; higher = more stable
Summary of the method: as §1

[3] = folding stability dG unfold from chymotrypsin proteolysis; higher = more stable
Summary of the method: as §1

Sequence | folding stability dG unfold [1] | folding stability dG unfold [2] | folding stability dG unfold [3]
SAGGSAGGSAGGSSMTLVTEETELPSPLRKVTKYTIDPKNPGKITSETTWYDPEGKPLGSAGGSAGGSAGGS [r4_297_JUSTAS] | 0.0774 ± 0.17 kcal/mol | -0.441 ± 0.33 kcal/mol | 0.362 ± 0.17 kcal/mol
SAGGSAGGTIWFDNPEDVERVVKDLRQEFPPDNPIDIMIWGPGSMYVIEITPDKIKDVEVYPMDSAGGSAGG [r6_289_TrROS] | 0.598 ± 0.27 kcal/mol | 0.318 ± 0.082 kcal/mol | 0.683 ± 0.14 kcal/mol
SAGGSMEVVVTFPDGSKEVIPEEPLKKLAEELGIPWDEEDPEAQWEAIARALAEKTGKPVEKVEIASAGGSA [r2_83_TrMRF] | 2.09 ± 0.093 kcal/mol | 1.97 ± 0.072 kcal/mol | 2.24 ± 0.17 kcal/mol
SAGGSAGGPVIEIEMPKNGFFRVKIWNPGNGKKQEYWIPPDEPDALKSLLDPGIDRVEIEPYPPSAGGSAGG [r6_640_TrROS] | 0.671 ± 0.082 kcal/mol | -0.000886 ± 0.15 kcal/mol | 1.04 ± 0.1 kcal/mol
SAGGSAGGSAGGWYVQIKFPNNPIYISAEEIRDNPEVLKELEDEGYPIKNIEVMKPGEGSAGGSAGGSAGGS [r10_396_TrROS] | 0.241 ± 0.14 kcal/mol | 0.526 ± 0.082 kcal/mol | -0.5 ± 0.29 kcal/mol
MKVIEVPIEGLPVEEIRRVIEEAIEKAKAEGNPDVKIIVTVPGPPELVEATTAVVKEIADKGDVEVSVVALS [r1_387_JUSTAS] | 3.52 ± 0.29 kcal/mol | 3.83 ± 0.36 kcal/mol | 2.82 ± 0.17 kcal/mol
SAGGSAGGSGSSLVSETVEEGPGLTTRTLTYRLPGAPGVLLERTVTYDPEGNELATSLTVVPESAGGSAGGS [r12_62_JUSTAS] | 0.15 ± 0.059 kcal/mol | 0.0552 ± 0.052 kcal/mol | 0.0935 ± 0.076 kcal/mol
SPNFERYEHTIEIELPNGRRIKIDVEMYRPPDGNPWARIKIEVEDNNGEPKKKDIWMPMNDAEKAIEDLLSA [r9_189_TrROS] | 1.99 ± 0.43 kcal/mol | 1.9 ± 0.14 kcal/mol | 1.85 ± 0.093 kcal/mol
SWMLRIRNPDDGKTREIKLPNMPPTVQKDGWISITNPQFLNQLLDALPPDYKIDEVEFMPGGMHTMKVKPSA [r9_997_TrROS] | 0.019 ± 0.12 kcal/mol | 0.0269 ± 0.17 kcal/mol | -0.067 ± 0.32 kcal/mol
SAKKLDIKVDGIQRPENNVMILIRIDPGLPPEKDVTITIKGKNGHKQEIPYENDHIYIMVPAQDITIKISAG [r14_350_TrROS] | 2.25 ± 0.34 kcal/mol | 1.8 ± 0.077 kcal/mol | 2.68 ± 0.045 kcal/mol
SAGGSAGGSNYINVKIEIWDPPNGKEREITINIPVPPGDPDYLKEIVNELASNFPGYYVKVEISAGGSAGGS [r12_795_TrROS] | 1.64 ± 0.23 kcal/mol | 1.61 ± 0.11 kcal/mol | 1.61 ± 0.058 kcal/mol
SAGGSKPVYKVKIEIEFNGKKIEIEIEAETEEEAKKAVEELLKKLFEENKDNLKIKVEVEKLPEKPSAGGSA [r2_111_TrROS_Hall] | 3.11 ± 0.12 kcal/mol | 2.95 ± 0.15 kcal/mol | 3.15 ± 0.2 kcal/mol
SAGGSKLTVEEIKKLFPNVEVTKKEDGTYEMRVTVEVTLPNGEKKKVEVTVKVEVKDGKIVKVEVTSAGGSA [r2_104_TrROS_Hall] | 2.9 ± 0.12 kcal/mol | 2.44 ± 0.15 kcal/mol | 3.17 ± 0.092 kcal/mol
SSASAMAPLPVEVYTLTVTVVKPGGEEVGTYTFTFNSPEEAKAFLEAFAKEKGLTIKKATLTRTPDTSLSSA [r9_1226_JUSTAS] | 4.16 ± 0.1 kcal/mol | 2.7 ± 0.12 kcal/mol | 4.59 ± 0.054 kcal/mol
SAGGSAGGSKKKIKITVEKVDEEKGYYYVTIEIYDEETGELVEKKTIVAPSKEEALKALKELLSAGGSAGGS [r12_26_TrROS_Hall] | 4.08 ± 0.35 kcal/mol | 4.41 ± 0.32 kcal/mol | 3.5 ± 0.2 kcal/mol
SAGGGMAPDTPVTVRIEITLPDGTRRVLDIPGRAGDPALLEAIAAELREEGYEVREIRPVEGRIVVASAGGS [r8_497_JUSTAS] | 2.53 ± 0.081 kcal/mol | 1.96 ± 0.028 kcal/mol | 2.81 ± 0.08 kcal/mol
SAGGVRKIEFRIDLPDPNVTIEEIVERILKELGLKPEEAIVEVLKIEEVEDEDGIPHIRIDVKIYVPDKSAG [r5_528_TrMRF] | 3.21 ± 0.059 kcal/mol | 3.54 ± 0.1 kcal/mol | 2.98 ± 0.031 kcal/mol
SAGGSKIKELLDAIKKAIEEGKEEVTIEVTLPNGSKIKFYPDGTIEITNKNGEKKTIKIKADDIKPSAGGSA [r2_97_TrROS_Hall] | 1.99 ± 0.27 kcal/mol | 2.29 ± 0.23 kcal/mol | 1.44 ± 0.1 kcal/mol
SAGGSAGGSAGGGRRLVLVKVPPDVPEEVIREFARRLVEEGVPEPVVVERLEDDYALVLVSAGGSAGGSAGG [r7_283_TrMRF] | 1.01 ± 0.17 kcal/mol | 0.861 ± 0.21 kcal/mol | 1.23 ± 0.24 kcal/mol
SGITPEQIEELAREIADLFPDVEIEIYPGLEPSIFDGPGAVAVIEREEGRGYITIYFPETGEPLVIEVPDSA [r9_1062_TrMRF] | 1.37 ± 0.2 kcal/mol | 1.5 ± 0.079 kcal/mol | 1.3 ± 0.033 kcal/mol
SAGGSAGGSAGPVLKIKVEVKLEKKYDKNGKLVEEKLEVKVEIELLEPAPPASDEELKKKSAGGSAGGSAGG [r11_131_TrROS_Hall] | 1.6 ± 0.39 kcal/mol | 0.29 ± 0.24 kcal/mol | 1.69 ± 0.2 kcal/mol
